From FireProtDB (doi:10.1074/jbc.m102741200)
Several values for one entry are separate records, joined by “and”; a condition that tells them apart may be missing. Identical values can stand only once.

B1: Alpha-amylase, P29957 (parent)
chain: MKLNKIITTAGLSLGLLLPSIATATPTTFVHLFEWNWQDVAQECEQYLGPKGYAAVQVSPPNEHITGSQWWTRYQPVSYELQSRGGNRAQFIDMVNRCSAAGVDIYVDTLINHMAAGSGTGTAGNSFGNKSFPIYSPQDFHESCTINNSDYGNDRYRVQNCELVGLADLDTASNYVQNTIAAYINDLQAIGVKGFRFDASKHVAASDIQSLMAKVNGSPVVFQEVIDQGGEAVGASEYLSTGLVTEFKYSTELGNTFRNGSLAWLSNFGEGWGFMPSSSAVVFVDNHDNQRGHGGAGNVITFEDGRLYDLANVFMLAYPYGYPKVMSSYDFHGDTDAGGPNVPVHNNGNLECFASNWKCEHRWSYIAGGVDFRNNTADNWAVTNWWDNTNNQISFGRGSSGHMAINKEDSTLTATVQTDMASGQYCNVLKGELSADAKSCSGEVITVNSDGTINLNIGAWDAMAIHKNAKLNTSSASSTESDWQRTVIFINAQTQSGQDMFIRGGIDHAYANANLGRNCQTSNFECAMPIRHNNLKNVTTSPWKANDNYLDWYGIENGQSSEAEGSATDWTTNVWPAGWGAEKTVNTDGFGVTPLNIWGEHYWMLDVDMDCSKAVNGWFELKAFIKNGQGWETAIAQDNAPYTSTNHMAQCGKINKFEFNNSGVVIRSF

Variants of: B1
Settings: Pseudoalteromonas haloplanktis; pH 7.2; Thermal; DSC; MOPS 30 mM; NaCl 50 mM; transition: 3; reversible: yes(30 %); structure 1AQH; whole UniProt chain shown

Row | Variant | unfolding enthalpy (calorimetric) | unfolding enthalpy (van 't Hoff)
1 | N312V | 88 kcal/mol and 59 kcal/mol | 133 kcal/mol and 114 kcal/mol

Same assay, conditions: Pseudoalteromonas haloplanktis; pH 7.2; Thermal; DSC; MOPS 30 mM; NaCl 50 mM; transition: 3; reversible: yes(95 %); structure 1AQH; whole UniProt chain shown

Row | Variant | unfolding enthalpy (calorimetric) | unfolding enthalpy (van 't Hoff)
2 | M403V | 127 kcal/mol and 84 kcal/mol | 96 kcal/mol and 137 kcal/mol

Same assay, conditions: Pseudoalteromonas haloplanktis; pH 7.2; Thermal; DSC; MOPS 30 mM; NaCl 50 mM; reversible: yes(60 %); structure 1AQH; whole UniProt chain shown

Row | Variant | Tm | unfolding enthalpy (calorimetric) | unfolding enthalpy (van 't Hoff)
3 | V220F | 45.4 °C | 234 kcal/mol | 296 kcal/mol

Same assay, conditions: Pseudoalteromonas haloplanktis; pH 7.2; Thermal; DSC; MOPS 30 mM; NaCl 50 mM; reversible: yes(97 %); structure 1AQH; whole UniProt chain shown

Row | Variant | Tm | unfolding enthalpy (calorimetric) | unfolding enthalpy (van 't Hoff)
4 | N174D | 44.8 °C | 271 kcal/mol | 240 kcal/mol

Same assay, conditions: Pseudoalteromonas haloplanktis; pH 7.2; Thermal; DSC; MOPS 30 mM; NaCl 50 mM; reversible: yes(25 %); structure 1AQH; whole UniProt chain shown

Row | Variant | Tm | unfolding enthalpy (calorimetric) | unfolding enthalpy (van 't Hoff)
5 | N36R | 43.3 °C | 193 kcal/mol | 231 kcal/mol

Same assay, conditions: Pseudoalteromonas haloplanktis; pH 7.2; Thermal; DSC; MOPS 30 mM; NaCl 50 mM; reversible: yes(91 %); structure 1AQH; whole UniProt chain shown

Row | Variant | Tm | unfolding enthalpy (calorimetric) | unfolding enthalpy (van 't Hoff)
6 | N174D V220F | 46.4 °C | 272 kcal/mol | 271 kcal/mol

Same assay, conditions: Pseudoalteromonas haloplanktis; pH 7.2; Thermal; DSC; MOPS 30 mM; NaCl 50 mM; transition: 3; reversible: yes(85 %); structure 1AQH; whole UniProt chain shown

Row | Variant | Tm | unfolding enthalpy (calorimetric) | unfolding enthalpy (van 't Hoff)
7 | T256V | 42.7 °C and 45.7 °C | 102 kcal/mol and 104 kcal/mol | 114 kcal/mol and 202 kcal/mol

Same assay, conditions: Pseudoalteromonas haloplanktis; pH 7.2; Thermal; DSC; MOPS 30 mM; NaCl 50 mM; reversible: yes(96 %); structure 1AQH; whole UniProt chain shown

Row | Variant | Tm | unfolding enthalpy (calorimetric) | unfolding enthalpy (van 't Hoff)
8 | R88E | 42.6 °C | 236 kcal/mol | 112 kcal/mol

Same assay, conditions: Pseudoalteromonas haloplanktis; pH 7.2; Thermal; DSC; MOPS 30 mM; NaCl 50 mM; transition: 3; reversible: yes(51 %); structure 1AQH; whole UniProt chain shown

Row | Variant | Tm | unfolding enthalpy (calorimetric) | unfolding enthalpy (van 't Hoff)
9 | Q188I V220F | 44.7 °C | 83 kcal/mol | 121 kcal/mol

Same assay, conditions: Pseudoalteromonas haloplanktis; pH 7.2; Thermal; DSC; MOPS 30 mM; NaCl 50 mM; reversible: yes(76 %); structure 1AQH; whole UniProt chain shown

Row | Variant | Tm | unfolding enthalpy (calorimetric) | unfolding enthalpy (van 't Hoff)
10 | E303W | 41.4 °C | 186 kcal/mol | 234 kcal/mol

Same assay, conditions: Pseudoalteromonas haloplanktis; pH 7.2; Thermal; DSC; MOPS 30 mM; NaCl 50 mM; reversible: yes(81 %); structure 1AQH; whole UniProt chain shown

Row | Variant | Tm | unfolding enthalpy (calorimetric) | unfolding enthalpy (van 't Hoff)
11 | L243R | 42.5 °C | 217 kcal/mol | 187 kcal/mol

Same assay, conditions: Pseudoalteromonas haloplanktis; pH 7.2; Thermal; DSC; MOPS 30 mM; NaCl 50 mM; transition: 3; reversible: yes(64 %); structure 1AQH; whole UniProt chain shown

Row | Variant | Tm | unfolding enthalpy (calorimetric) | unfolding enthalpy (van 't Hoff)
12 | Q188I | 42.7 °C and 45.2 °C | 87 kcal/mol and 117 kcal/mol | 117 kcal/mol and 240 kcal/mol
